Measurements published in patent US20100204461 (published 2010).

Target: alpha-thrombin (UniProt P00734;P00734 P00734:328-363,P00734:364-622)
Assay: fluorescence dequenching at 277 nM TAL2, protein ratios 1:1 to 100:1; t1/2 about 30 min at 10-fold excess; 10 mM KCl, 5 mM MgCl2, 12.5 mM Tris acetate pH 6.5

B1: TAL2 beacon with Dabcyl anchor (structured_DNA)
DNA 1: GGTTGGTTTGGTTGGCAACCTCTGCTACGTG
DNA 2: CACGTAGCAG
modifications: anchor 5' NH2-(CH2)6
  binding result: binds
